Test system: Saccharomyces cerevisiae
Assay: transcriptional activation domain activity (GFP:mCherry ratio, weighted mean of sorted bins, harmonized to initial dataset scale) (arbitrary fluorescence ratio units); higher = stronger transcriptional activation
Conditions: beta-estradiol 1 µM; induction time 4 h
In short: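 The activation activity of each tile is the read-weighted mean of bin median fluorescence, averaged across its barcodes and mapped linearly onto the scale of the initial dataset. Tiles were fused to an estradiol-inducible synthetic transcription factor, barcoded, and integrated at URA3 in yeast diploids carrying a GFP reporter. Induction used 1 uM beta-estradiol in SC for 4 hours at 30 °C, after which cells were sorted into 8 GFP:mCherry bins, and any tile with fewer than 50 reads was dropped.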

| Sequence | transcriptional activation domain activity |
| --- | --- |
| GKSKEERERDEEVIRKWSGKPTKVMLQVFDDCSLSFTRPAKLMYRSIAHFSLW | 65100 |
| GKTYTLEQDEDVLDTWFSSGLWPFSTLGWPNQTHDLENLFPTDVLETGWDILF | 126000 |
| GKVFILLRIWFFRQRSLSLYRTLLSSYLVERSPLFTSTMGVFGLDRKLLVKTA | 62500 |
| GKVPRRTERRKLWDDVKALRKELIDILLFSPLSLADIHFRYRKREGGVVNYYL | 21800 |
| GLAELAAALDDSDVQYAYARVEYANDAESKRVKFVLIVWIGSGTKVMRKGRAG | 42200 |
| GLAIIRWQRGFRDYDNVTFKRFDYEVGMSILGWAFHYFPFFLMARQLFLHHYL | 52400 |
| GLANYLKPVHDQKLIIFIEILILLWAVLVYSTVQVARGATGFYLPTVLYNIYL | 49300 |
| GLCLLYISGLVCATIVCYIEFTMHQSALLNATRLTPFMIAALCLTLFLNIIAT | 57200 |
| GLCRSGELLLPGAQYHRNPAVRKAWPGIFKWTRRNAMDVIATVWFWLTRADGL | 51100 |
| GLCYCHSIKLRHLLIPMEKLYLMGLILVQCYNGVLHSMLFGARYEFLPLMLTS | 71000 |
| GLDCDKQHVRECPDFAERGTCATRGCKLPHVIRANRNRKAPAPAAQKSTSTST | 25500 |
| GLEFVEPWTELIEQRYMQCGDGDNNNFENLYNLFVNSNNINNDINNSRPITRK | 81200 |
| GLFASCWQRFAQAYRPCIGLTRIFVLCLLEVVLWLKGLEILFWFFLWCWCTTT | 50200 |
| GLFLVFGFWYIGVCSYGFLGFSLSLGGVYIRFFLYYHYQRILRLISLPFPVWF | 59700 |
| GLFRVAGRVLHVNRLNDDFDAGADYDLRKATPADLDPHVVASVLKSYLRTLRG | 27100 |
| GLGFFFSFSLFNFFLHASSLYLLFLVTLLDLHYIFLVLSLTLFRVYVCFISAP | 43400 |
| GLGKEGESYIVAMGAVSGGIIIYRRIEGGAGLVEVVRNSTAVARTTAVMIALE | 42400 |
| GLHFERRLFHLLFSTVCISICFCLLVFNLLIQNYMKKADQKEGMAAFAEKRKP | 28000 |
| GLKLSPSSSGLLSTNESNAIEQFLDNLISQDMMSSNASMNSESHLHIRSPKKQ | 68400 |
| GLKRLAMLLRRMLSEKDLIFVFKGLQFLKYWTLSAEEIHTHARYWRRAWKILS | 52400 |
| GLLCWIAIRKLGIIGLYVYMDDFFGWDFLDNLIFYRGMRRPRRQVLLLILWEF | 50700 |

| Sequence | transcriptional activation domain activity |
| --- | --- |
| GLLKIVVILPVTDVPLPPYRVTPMFLGGMRDLVTHLLRRTSTILTCDRLWYLW | 28400 |
| GLLSSCVLIVLVIHHPFLLSDNRHYTFYIWRRVYMFHPIVPYALIPAYLACAW | 66700 |
| GLLYILFCYQMNLKTHSLKVIALAEESVRLVHDRQSKRLWLPSITWKKWFRTG | 74800 |
| GLMGALGFRMLFGVPCLPFFALHWFLWLVNDYILYCVLVQTNRISSIHFLRAW | 41200 |
| GLNLPKISASYLCQYRGSLIGKHFKAIVQLMCFLCYDLLPAPLLNAWLILGRL | 70900 |
| GLNPLRTTLMMSLNIIRSLFPAFRGYSQALIVDELQSLIASESFTWSRLLWLM | 57900 |
| GLPVVLVLVFFGLPTTGFLVFFPADFLVVFFAFLATFLKVVFKGFFAFLLFFP | 74300 |
| GLQGQYNAYSTKHNINVPHGDILVFSLACGQIMYAWLMRPDTLPISYSNWICN | 39300 |
| GLRDNVIENRQGKKGAGKAAAAGGAGAAAANTNAATGGKAAKAAKAAAAGGSG | 48900 |
| GLRLIYVVNHGAWGKGPPLATIWVYVIVQLNLLPAVLSLVVIAGFVQYLNLKI | 77200 |
| GLRNERHFVLFMAYFVLSCWCFCTLGYSYMYLSLDFTQDWPHWPGRTPFILIY | 54000 |
| GLTLLCLRRILQLWAGSDQLSELVSYVPVHLRVLAMRDAAVFAPLSRKVLQAL | 57700 |
| GLVSLDRLLVNRFGEALLSMGRAPTWSWKRALRAVLLSLVELSARCEFKLGSN | 48400 |
| GLVYMIGVYSISGLDRTLQMIHAILHVNFNSLVHKKGITHSCLLWLILIFFGL | 48000 |
| GLWLVLLCDAARFPDVVDLVKRKGSRFPASGDLASNESWYLSLWAIKAHILQR | 64800 |
| GMCVCTYRLHRCSHVKSRGRRFLCLHVLLCDVMMGPLTEWWCPLLRMMVKVYL | 47800 |
| GMEGERVKESIRRVQHQGADELYRRSQEKNGKGLRLSQSKTRSRGETPLQLIA | 63100 |
| GMFDGVYTGLGVKLPVDKLERYSAAEIAIMSWRVVYLYYWISFCILILCFILF | 69900 |
| GMGTAAGKSRARAAAKKTTTKGKESKGKSKSQVGTRRSVRGKRGAREVGDASS | 27300 |
| GMHSGDGEFVPFYAPVVVEGPVEAWLLEIEATMRVTLRKLLLGCILALKKAKK | 61300 |
| GMIGFDPNVSLEKIYHGRFKDILHKGIQIADRTFTFLGFSHSSLRGHTCWFAA | 75600 |

| Sequence | transcriptional activation domain activity |
| --- | --- |
| GMKNIDEGPETENDATENSLTTILNDLEGPLEDFSENFIDDILGSPSAFFDTA | 151000 |
| GMKRFLPLCFVMYTLWCTTISITWKLICFLSVTADSTPTIQWRLLCMLFWYLF | 33700 |
| GMPESTVEDVGGPSTATVEEGGPREVEATVQGVEEASTSAPVKRGRGRPRKTS | 30800 |
| GMVPGYYPKMPYNPMGGDPLLDQAFYGADDFFFPPEGCDNNMLYPQTATSWNV | 138000 |
| GNAREMRASSARAAGFRRRGRQASNTRAAGNEREGGEQRARGRGASSARAGGI | 43400 |
| GNATAGAGAGQAGEAKGKGKAKAKAKGKEKKGKGKAKGKANGKNNQGAAAGGA | 46300 |
| GNAVYMSMDLPDTTFALSKLLNYIEWNRAKLFSFAFFVCVWTYFRHYLNLVIL | 46000 |
| GNDEAGAEDTDEDEIEGEGEEGQAPADGNEEEGAGEGESSRAMKKIGKKKAEK | 16600 |
| GNEREQREGRREKNGRGEKGKKEERRGRKKRGGGWKRVRRENQARKQGEKGEQ | 38100 |
| GNESDDESTEEEKEVKRKKKKKVAKKLPKKKAKKAAVKAKSKKSKKADSSDES | 31000 |
| GNGGAGAGAGGANANANANANAGNGAAAAGGNNAATAATGGGKAAKAAAAAAA | 22600 |
| GNGKNKHTQRHRGGEKRNLPPSKKQRRKKKSRRIRHRKAQPHPDDEQLQDDKG | 17000 |
| GNIHFTLRMALSDPDMTTVRPVLDLLFGLTHFFFVVNTGLFDLIQSCFKIIEA | 55100 |
| GNNKPRGNNQRGGARNVRNGAEAGDEEAPREQRDSRSSRGRGEGRGRGRGRGG | 31700 |
| GNTGAGGEALVRSVGGSSAVEYPVCVEMDVVSGADGGEKLVWRTACDSRFVDG | 44800 |
| GNTVAIFVPFWEYCVLFPSELRIWKRMLRARPFRWHFAPIMTIILRYLLIIFA | 45200 |
| GPASGASKPKRRYVRKRKEPEEGAGVDNAEASSMAPKPKRQRKKKAPMAEARN | 21900 |
| GPDPFQQLSSAEHPNNHSSDDEHSGSQPLPLDSITIGIPPTLHTIPMILSKDN | 62900 |
| GPEYEPGRPSEQEVSLTRMLDKVLRRSDAIDKESLCIIAGQRVWHIRLTIHCL | 87900 |
| GPFQSSAQVDGTLDGDLLQELLIAFLSRKKRFVVWKVMKVLFATLLKRMGAHD | 55600 |
| GPIFILLNYIFLAMLWLKNYRPHHLHILIRTRPYVYVTSNLPRLRFLFRHFLF | 48300 |

| Sequence | transcriptional activation domain activity |
| --- | --- |
| GPLCMDQYRRIFGVTRRPGLSVDSTVLASDLNGRVSILVLLRNRLFRLSLPTG | 42400 |
| GPLLFVEIRAGFFPLYYPFSFLCLSGFVFELGHYPSGSFVPGVLLSWSLNFII | 53700 |
| GPLRVAQRPRERPGLRAARVPAEGQEAEGPGRLGRARVGGGVPRGRAAARVVV | 34200 |
| GPLSDEKSVKVSTFSELIGNDWQSMNFDLENNSREVTLNATSLLNENRLNQDS | 48600 |
| GPRDVFGIRSAWKLPLSVAYWLLVCLARRKDFGSLRAVTVGHITWNQYMVGER | 58600 |
| GPSAEATPPSTEVKKKRQYRKRQITAEGGEAENGEASSAVPKPKRVRKKKDPP | 38300 |
| GPSSSSSLSSSAGMPGTFVLNLGRYGGYYVIHMPVGAQRVLGLVLRRWKTLLF | 60500 |
| GPTIRHEMNLFHVYGRRNPHLRLMISLIYVWMRSWGVKEMSPRTLCLLLIRFF | 48600 |
| GPTIRHKMNLFHVYGRRNPHLRLMISLIYVWMRSWGVKEMSPGTLCLLLIRFF | 59800 |
| GPWFLGAFIPSIPQYGLFYPYGIYFPDTKEWIPILDTFYIALWEHTFFIFPLL | 51600 |
| GPYDDIFMGGIYGIKHLYELEDGLTILWHDGIHFSPNRVFRLLIAFLLRVVGT | 61900 |
| GQAGAPQRASARGSVQLPAQRGAQDGEPAAARRARSRDHARHKPPRHGEAVHA | 46200 |
| GQATLRLLKESGRQSHAPIFIVGAFDGNRRQIGEGMGSSIKMAEFRAAEDALR | 26300 |
| GQGPLRSSYSMAYDSPVDRAMNTPLQQQEGLKAELPHDFLFQHGTDDTMYNLT | 36100 |
| GQHEGLDKLREYHEHVLDRILFALLLRKRQKPVMKLLEEIFTLVLKFSKYSSA | 59400 |
| GQLLVALAREAFTLVTWRTTLQGKLEVEIFPPSDLLLNRYMWYVLHLLDHTSL | 13100 |
| GQPTDASDGNATEGEVPEKPKKAKRKRVKKDAGEISDGGQPKSKPKKKRKPAK | 36100 |
| GQRPFGQVLNFFSCFLFIAFSCCHGPSLVNLIVWAAFFAQSTLFLIYLLRCIC | 43800 |
| GQSGLGLEFNLPDFPLISIIFLIFFITLGLLWLVIVYLANFPDAFTLPVWLWH | 29500 |
| GQSRGTTSGTIATGLCAGLSRGIAESVELQKRIDFALAGYFRYIRWWRLGFMS | 69900 |

— the supplement of paper PMC12636428
